Reference: patent US20050123549A1 (IMMUNOGEN, published 2005)
Substitutions are numbered along the chain they refer to.

Columns and labels:
[1] = target: T1, Muc1 mucin carrying the CA6 sialoglycotope (human, UniProt P15941 24-1255, sialylated O-linked carbohydrate carrying the CA6 epitope; positions not stated); experiment: flow cytometry on WISH cells, direct binding
T1 construct: whole, on cells; Target of DS6 on CA6-positive human cell lines (flow cytometry) and in their lysates (dot blots, immunoprecipitation); also called CA6 antigen; DS6 antigen

[2] = target: T1, Muc1 mucin carrying the CA6 …; experiment: competition flow cytometry on WISH cells; competitor 2 nM biotin-muDS6, streptavidin-DTAF
Protocol: (§1) To confirm that the huDS6 versions retains the affinity of muDS6, competitive binding experiments were conducted. […] In some cases, the experimentally measured apparent Kd can vary simply because of the secondary reagent used to indirectly detect binding.

[3] = target: T1, Muc1 mucin carrying the CA6 …; experiment: cell-based or functional assay
[4] = target: T1, Muc1 mucin carrying the CA6 …; experiment: flow cytometry on Caov-3 cells
[5] = target: T1, Muc1 mucin carrying the CA6 …; experiment: flow cytometry on WISH cells, detected with streptavidin-DTAF
Protocol: as §1

[6] = target: T1, Muc1 mucin carrying the CA6 …; experiment: flow cytometry on WISH cells, detected with goat anti-mouse-FITC
[7] = target: T1, Muc1 mucin carrying the CA6 …; experiment: flow cytometry on HeLa cells

B1: humanized DS6 antibody version 1.0 (antibody, human IgG1, V domains shown)
VH: QAQLQVSGAEVVKPGASVKMSCKASGYTFTSYNMHWVKQTPGQGLEWIGYIYPGNGATNYNQKFQGKATLTADTSSSTAYMQISSLTSEDSAVYFCARGDSVPFAYWGQGTLVTVSA
VL: EIVLTQSPATMSASPGERVTITCSAHSSVSFMHWFQQKPGTSPKLWIYSTSSLASGVPARFGGSGSGTSYSLTISSMEAEDAATYYCQQRSSFPLTFGAGTKLELKR
notes: also called huDS6 v1.0; v1.0
Binder B1 has a Kd [1] of 3.71 nM and an EC50 [2] of 37.1 nM.

B2: DS6 antibody-DM1 conjugate (antibody, V domains shown)
VH: B1 VH with Q3Y, V6Q, V11L, K13R, P14S, Q65K, T74P
VL: B1 VL with E1Q, T10I, R18K, S76R
modifications: DM1 linked through the SPP disulfide linker, DM1/Ab ratio 4.36; positions not given
notes: also called DS6-DM1; immunoconjugate
For B2, the “Clonogenic Assay Conjugate IC50 (M), BT-20 cells” value [3] was over 3e-09 M, the “Clonogenic Assay Conjugate IC50 (M), BT-483 cells” value [3] was 1e-10 M and the “Clonogenic Assay Conjugate IC50 (M), Caov-3 cells” value [3] was 8e-10 M. The “Clonogenic Assay Conjugate IC50 (M), Caov-4 cells” value [3] was over 3e-09 M, the “Clonogenic Assay Conjugate IC50 (M), HPAC cells” value [3] was 1.8e-09 M and the “Clonogenic Assay Conjugate IC50 (M), HPAF-II cells” value [3] was over 3e-09 M. For the same binder, the “Clonogenic Assay Conjugate IC50 (M), HeLa cells” value [3] was 1.8e-09 M, the “Clonogenic Assay Conjugate IC50 (M), Hs766T cells” value [3] was over 3e-09 M and the “Clonogenic Assay Conjugate IC50 (M), KB cells” value [3] was 1.4e-09 M. For the same binder, the “Clonogenic Assay Conjugate IC50 (M), OVCAR5 cells” value [3] was over 3e-09 M, the “Clonogenic Assay Conjugate IC50 (M), T-47D cells” value [3] was over 3e-09 M and the “Clonogenic Assay Conjugate IC50 (M), TOV-21G cells” value [3] was 2e-09 M. For the same binder, the “Clonogenic Assay Conjugate IC50 (M), WISH cells” value [3] was 4.6e-10 M, the “MTT Assay Conjugate EC50 (M), BT-20 cells” value [3] was 1.44e-08 M and the “MTT Assay Conjugate EC50 (M), Caov-3 cells” value [3] was 1.61e-09 M. For the same binder, the “MTT Assay Conjugate EC50 (M), HPAC cells” value [3] was 1.84e-09 M, the “MTT Assay Conjugate EC50 (M), HPAF-II cells” value [3] was 1e-08 M and the “MTT Assay Conjugate EC50 (M), Hs766T cells” value [3] was over 3.2e-08 M. For the same binder, the “MTT Assay Conjugate EC50 (M), KB cells” value [3] was 3.01e-09 M, the “MTT Assay Conjugate EC50 (M), OVCAR5 cells” value [3] was 8.46e-07 M and the “MTT Assay Conjugate EC50 (M), TOV-21G cells” value [3] was 6.88e-09 M. The “MTT Assay Conjugate EC50 (M), WISH cells” value [3] was 6.69e-10 M, the “MTT Assay Conjugate EC50 (M), ZR-75-1 cells” value [3] was 9.45e-10 M and the Kd [4] was 3.9 nM.

B3: biotinylated murine DS6 (antibody, V domains shown)
VH: B1 VH with Q3Y, V6Q, V11L, K13R, P14S, Q65K, T74P
VL: B1 VL with E1Q, T10I, R18K, S76R
modifications: biotinylated; positions not given
notes: Murine DS6 IgG with biotin; also called biotin-muDS6; biotin-DS6
B3 was tested, and the Kd [5] was 6.76 nM and the Kd [6] was 2.8 nM.

B4: DS6-SPP-MM1-202 taxoid conjugate (antibody, V domains shown)
VH: B1 VH with Q3Y, V6Q, V11L, K13R, P14S, Q65K, T74P
VL: B1 VL with E1Q, T10I, R18K, S76R
modifications: taxoid MM1-202 linked through the SSNPP linker, 2.86 drugs/antibody; positions not given
notes: also called taxane-conjugated DS6 antibody
In the case of B4, the Kd [7] is reported as 1.24 nM.

B5: chimeric DS6 (antibody, V domains shown)
VH: B1 VH with Q3Y, V6Q, V11L, K13R, P14S, Q65K, T74P
VL: B1 VL with E1Q, T10I, R18K, S76R
For B5, the Kd [1] was 3.15 nM.

B6: humanized DS6 antibody version 1.2 (antibody, human IgG1, V domains shown)
VH: B1 VH with T74P
VL: B1 VL
notes: The light chain is the same as in v1.0; also called huDS6 v1.2; v1.2
B6 showed a Kd [1] of 4.2 nM and an EC50 [2] of 22.6 nM.
